# Test results reported in paper PMC8445900.
# Molecular target: SARS-CoV-2 spike protein receptor-binding domain, wildtype (SARS-CoV-2) (UniProt P0DTC2)
# Assay: ITC
substance,measurement,value
CC12.1 single-chain fragment variable (scFv),Kd,28 nM
same,dH,-4.8 kcal/mol
